In the nanobody polyreactivity screen of Harvey et al. (2022):

Test: yeast display, Sf9 membrane polyspecificity reagent, FACS + sequencing; frameworks hold sequencing errors
Method in brief: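 Using colony PCR, genes from sorted yeast display clones were amplified, then sequenced on MiSeq at 2 × 250 and filtered by CDR length. The clones had been stained with 10% biotinylated, detergent-solubilized Sf9 membrane reagent for 1 hour at 4 °C and sorted by FACS into low and high (top ~1%) gates on anti-HA and streptavidin fluorescence. Polyreactivity labels come from the gate of origin.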

Sequence | polyreactivity (PSR sort gate)
QVQLVESGGGIVQAGGSIRLSCAASGYTFAKYAMGWYRQAPGKERELVAAITFSDTSTYYADSVKGRFTISRDNAKNTVYLQMNSLKPEDTAVYYCAVVGPYYSRFGGRYYYWGQGTQVTVSS | low polyreactivity
QVQLVESGGGIVQAGGSLRLISAASGRTYKSYTIGWYRQAPGKEREFVAAISSRGGNTYYADSVKGRFTISRDNAKNTVYLQMNSLKPEDTAVYYCAARYGYSYDRRDYWGQGTQVTVSS | high polyreactivity
QVQLVESGGGIVQAGGSLRLRCAASGFTFSRNAMVWYRQAPGKERELVAAITWSGGRTYYADSVKGRFTISRDNAKNTVYLQMNSLKPEDTAVYYCAARKYHLRSAYDYWGQGTKVTVSS | low polyreactivity
QVQLVESGGGIVQAGGSLRLSCAASGFIFGSYAMGWYRQAPGKERELVAAINSVDRTYYADSVKGRFTISRDNAKNTVYLQMNSLKPEDTAVYYCAATIAPTPGYIIYDYWGQGTQVTVSS | high polyreactivity
QVQLVESGGGIVQAGGSLRLSCAASGFIFVANAMGRYRQAPGKERQLVAAISGSGGSTFYADSVKGRFTISRDNAKNTVNLQMNSLKPEDTAGYYCNADAYDYSGYFEYDCWGQGTQETVSS | high polyreactivity
QVQLVESGGGIVQAGGSLRLSCAASGFIFYRYAMGWYRQAPGKERELVAAITGSGARTYYADSVKGRFTISRDNAKNTVYLQMNSLKPEDTAVYYCNARGYRGYDYWGQGTQVTVSS | high polyreactivity
QVQLVESGGGIVQAGGSLRLSCAASGFIFYWNAMGRYRQAPGKERELVAGITSGGDTNYADSVKGRFTISRDNAKITVYLQMNSLKPEDTAVYYCAAEGFRGYGYWGQGTQVTVSS | low polyreactivity
QVQLVESGGGIVQAGGSLRLSCAASGFIISYNAMVWYRQAPGKERELVAAISSRGGSTYYADSVKGRFTISRDNAKNTVYLQMNSLKPEDTAVYYCAVASRRVYTAPYDYWGQGTQVSVSS | high polyreactivity
QVQLVESGGGIVQAGGSLRLSCAASGFISYRNAMGWDRMAPGKERELVASITSSGGRTYYADSVKGRFTISRDNAKNTVYLQMNSLKPEDTAVYDWAADNWYKKQKRPSAYDYWGQGTQVSVSS | high polyreactivity
QVQLVESGGGIVQAGGSLRLSCAASGFNFLRYAMGWYRQAPGKERELVAAISTSGGSTSYADSVKGRFTISRDNAKNTVYLQMNSLNPEDTAVYYCNAVLYKVSISEYDYWGQGTQVTVSS | high polyreactivity
QVQLVESGGGIVQAGGSLRLSCAASGFTFEKNAMGWYRQAPGKERELVAAISRGGSTYADSVKGRFRISRDNAKNTVYLQMNSLKPEDTAVYYCAADTVYIFSSAINGEFGYWGQGTQVTVSS | low polyreactivity
QVQLVESGGGIVQAGGSLRLSCAASGFTFEYYAMGWYRQAPGKERELVADITSGGTYYADSVKGRFTISRDNAKNTVYLQMNSLKPEDTAVYYCAADFGQPYTYYAKENYWGQGTQVTVSS | low polyreactivity
QVQLVESGGGIVQAGGSLRLSCAASGFTFTHYAMGWYRQAPGKERELVAAISPSGGSTYYADSVKGRFTISRDNAKNTVYLQMNSLKTEDTAVFYFAARRDGWVQWGYYYWGQGTEVTVSS | low polyreactivity
QVQLVESGGGIVQAGGSLRLSCAASGFTISRYAMGWDRPAPGKERELVAAITGSGGSTYYADSVKGRFTISRDIAKNTVYLQMNSLKPEDTAVYYCNTMKHYKREYDYWGQGSQVTVSS | high polyreactivity
QVQLVESGGGIVQAGGSLRLSCAASGGTFPWYTMVWYRQAPGKERELVATIRGRDGSTFYADSVKGRFTISRDNAKNTVYLQMNSLIPEVTAVYYCAAVGRRKDLRWGVYYRFDYWGQGTQVTVSS | low polyreactivity
QVQLVESGGGIVQAGGSLRLSCAASGIIFPLYAMGWYRPAPGKERELVAAIRSTGGSTYYADSVKGRFTISRDNANNTVYLQMNSLKPEDTAVYYCNARQNRRQGNVGYWGQGTQVTVSS | low polyreactivity
QVQLVESGGGIVQAGGSLRLSCAASGIIFPYYAMGWYRQAPGKVRELVAAISSSGGSTHYADSVKGRFTISRDTAKNTVYLQMHSLKPEDTAVYYCAARDINRYPKAQPTDRSIYYWRQGTQVTVSS | high polyreactivity
QVQLVESGGGIVQAGGSLRLSCAASGIIIFYKAMGWDRQAPGKERELVATISRRGGSTYYADSVKGRFTISRDNAKNTVYLQMNSLKPEDTAVYYCARDVGAGSKISRLSSYNYWGQGTQVTVSS | low polyreactivity
QVQLVESGGGIVQAGGSLRLSCAASGITFDGYAMGWYRQAPGKERELVAGISWSGARTYYADSVKGRFTISRDNAKNTVYLLMNSLKPEDTALYYCNKVSLRNHGGYDYWGQGNQVTVSS | high polyreactivity
QVQLVESGGGIVQAGGSLRLSCAASGITFFYYAMGWYRQAPGKERELVASISSGGSTYYADSVKGRFTISRDNAKNTVYLQMNSLKPEDTAVYYCAAPTGWYPAYGEYEYWGQGTQVTVSS | low polyreactivity
QVQLVESGGGIVQAGGSLRLSCAASGITFPANAMGWYRQAPGKERELVADISESDGSTYYADSVKGRFTISRDNAKNTVYLQMNSLKPEDTAVYYCAADGTSGTRSDYWGQGTQVTVSS | low polyreactivity
QVQLVESGGGIVQAGGSLRLSCAASGITFPFYTMGWYRQAPGKERELVADISSRGTSTYYADSVKGRFTISRDNAKYTVYLQMNSLNPEDTAVYYCKARATPQRAYDSWGQGTLVTVSS | high polyreactivity

Sequence | polyreactivity (PSR sort gate)
QVQLVESGGGIVQAGGSLRLSCAASGLTFPQYAMGWYTQAPGKERELVAAISWNGGITYYADSVKGRFTISRDYAKNTVYLQMNSLKPEDTAVYYCNDDGGYGDYYYWGQGTQVTVSS | low polyreactivity
QVQLVESGGGIVQAGGSLRLSCAASGLTFRKYAMGWYRQAPGKERELVAAIRFRGGSTYYADSVKGRFTISRDNAKNTVYLQMNSLKPEDTAVYYCNTAPVGLLYGRYDYWGEGTQVTVSS | high polyreactivity
QVQLVESGGGIVQAGGSLRLSCAASGRIFAWNAMGWYRQAPGKERELVAYADSVKGRFTISRDNAKNTVYLQMHSLNPEDSAVYYCAKVVTPYVPGDSYWYDYWGQGTQVTVSS | low polyreactivity
QVQLVESGGGIVQAGGSLRLSCAASGRIFDEYAMGWYRLAPGKERELVAAITYSAGSTYYADSVKGRFTISRDNAKNTVYLQMNSLKPEDTAVYYCAADRYYWWWYTYNYWGQGTQVTVSS | low polyreactivity
QVQLVESGGGIVQAGGSLRLSCAASGRIFLTNAMGWYRQAPGKERELVAAITSGGSTYYADSVKGRFTISRDNAKNTVYLQMNSLKPEDTAVFYCNADTDRYWPYEYDYWGQGTQVTVSS | low polyreactivity
QVQLVESGGGIVQAGGSLRLSCAASGRIFLTNAMGWYRQAPGKERELVADISRGGSTYPDSVKGRFTISRDNAKNTVYLQMNSLKPEDTAVYYCAADEYSPGDSRTRYDYWGQGTQVTVSS | low polyreactivity
QVQLVESGGGIVQAGGSLRLSCAASGRIFRRYAMVWSRQAPGKQRELVAAISSGGGSTYYADSVKGRFTISRDNAKNTVYLQMNSLKPEDTAVFYCDAASSPRYDYWGQGTQVTVSS | high polyreactivity
QVQLVESGGGIVQAGGSLRLSCAASGRIFVDYDMGWYRQATGKERELVATISSGGSTNYADSVKGRFTISRDNAKNTVYLQMNSLKPEDSAVYHCNKDYHVRYYYWGQGTQVTVSS | low polyreactivity
QVQLVESGGGIVQAGGSLRLSCAASGRIFYDHAMGWYRQAPGKERELVAAITSVRSTNYADSVKGRFTISRDNAKNTVNLQMNSLKPEDTAVYYCARASAWYGTLVGKYTKYDYWGQATQVTVSS | low polyreactivity
QVQLVESGGGIVQAGGSLRLSCAASGRILSSYAMGWYRQAPGKERELVARISYSGGRTYYADSVKGRFTISRDNAKNTVYLQMNSQKPEDTAVYYCAAVSRVHFSYIYDYWGQGTQVTVSS | high polyreactivity
QVQLVESGGGIVQAGGSLRLSCAASGRSFDPYAMGWYRQAPGKERELVAAISRSGGSTYYADSVKGRFTISRDNAKNTVYLQMNSLKPEDTAFYYCAADDSRYYYEYDYWGQGTQVTVSS | high polyreactivity
QVQLVESGGGIVQAGGSLRLSCAASGRTFAYNVMGWYRHAPGKERELVAGISFGAGSTYYADSVKGRFTISRDNAKNTVYLQMNSLKPEDTAVYYCATRRRGTRYPRGYDYWGQGTQVTVSS | high polyreactivity
QVQLVESGGGIVQAGGSLRLSCAASGRTFAYYTMGWYRQAPGKERELVARISNRGTNTYYADSVKGRFTISRDNAKNTVYLQMNSLKPEDTAVYYCAKYYYTSIVGYDSWGQGTQVTVSS | low polyreactivity
QVQLVESGGGIVQAGGSLRLSCAASGRTFIRYTRGWYRQAPGKERELVGSIRYSGASTSYADSVKGRFTISRDNAKNTVYLQMNSLKPEDTAVYYCAARFGRYSHRYYYWGQGTQVTVSS | high polyreactivity
QVQLVESGGGIVQAGGSLRLSCAASGRTFLGYAMGWYRQAPGKERELVAAISYSGSSTYYADSVKGRFTISRDNAKNTVYLQMNSLKPEDTAVYYCAAQFYFLFDYWGQGTQVTVSS | low polyreactivity
QVQLVESGGGIVQAGGSLRLSCAASGRTFLQNAMGWYRQAPGKERELVATINYSGSSTYYADSVKGRFTISRDNAKKTVYLQMNSLKPEDTAVYYCNRDVPYRLVYYANYYRGQGTQVTVSS | low polyreactivity
QVQLVESGGGIVQAGGSLRLSCAASGRTFRGNAMGWSRQAPVKERELVATIRRPGGSTYYADSVKGRFTISRDNAKNTVYLQMNSLKPEDTAVYYCNALNYYLYDKTFDYWGQGTKVTVSS | high polyreactivity
QVQLVESGGGIVQAGGSLRLSCAASGRTFRGNAMGWYRQAPGKERELVAAISWSGGRTYYADSVKGRFTISRDNAKNTVYLQMNSLKPEDTAVYYCNRLTRRWYSLRSFDYWGQGTQVTVSS | high polyreactivity
QVQLVESGGGIVQAGGSLRLSCAASGRTFSPYAKGWYRQAPGKERELVAAITLSGSSTYYADSVKGRFTISRDNAKNTVYLQMNRLKPEDTAVYYCAADYLYSWYRYVTYDYWGQGTQVTVSS | high polyreactivity
QVQLVESGGGIVQAGGSLRLSCAASGRTFYGNVMGWYRQAPGKERELVATISFSAGSTYYADSVKGRFTISRDNAKNTVYLQMNSLKPEDTAVYYCNADHTDYASGGGNYWGQGTQVTVSS | low polyreactivity
QVQLVESGGGIVQAGGSLRLSCAASGSIFDSNAMGWYRQAPGKERELVAAITGSGTSTYYADSVKGRFTISRDNAKNTVYLQMNSLKPEDTAVYYCAAAPEYLTDHDYWGQGTQVTVSS | low polyreactivity
